The values that follow come from paper PMC7367873, “Dissecting the sequence determinants for dephosphorylation by the catalytic subunits of phosphatases PP1 and PP2A” (Nature Communications, 2020).

One experiment concerns GFP-14-3-3β. Briefly: GFP-14-3-3β co-IP with LC-MS/MS, untreated GFP-14-3-3β versus GFP control (14-3-3 interactome). Type of experiment: binding, human. To be noted: pairwise comparison untreated vs GFP.
Experiment [1] concerns GFP-14-3-3β and its binding proteins. Kind of experiment: GFP-14-3-3β co-IP with LC-MS/MS label-free quantification, untreated versus PP1c-treated. Details: species or system human. Particulars: pairwise comparison PP1 vs untreated.
The mark [2] stands for this setting: log2 difference, label-free quantification, 3 replicates each.

B1: MRE11A (protein, UniProt P49959 2-708, looked up)
Double-strand break repair …: STADALDDENTFKILVATDIHLGFMEKDAVRGNDTFVTLDEILRLAQENEVDFILLGGDLFHENKPSRKTLHTCLELLRKYCMGDRPVQFEILSDQSVNFGFSKFPWVNYQDGNLNISIPVFSIHGNHDDPTGADALCALDILSCAGFVNHFGRSMSVEKIDISPVLLQKGSTKIALYGLGSIPDERLYRMFVNKKVTMLRPKEDENSWFNLFVIHQNRSKHGSTNFIPEQFLDDFIDLVIWGHEHECKIAPTKNEQQLFYISQPGSSVVTSLSPGEAVKKHVGLLRIKGRKMNMHKIPLHTVRQFFMEDIVLANHPDIFNPDNPKVTQAIQSFCLEKIEEMLENAERERLGNSHQPEKPLVRLRVDYSGGFEPFSVLRFSQKFVDRVANPKDIIHFFRHREQKEKTGEEINFGKLITKPSEGTTLRVEDLVKQYFQTAEKNVQLSLLTERGMGEAVQEFVDKEEKDAIEELVKYQLEKTQRFLKERHIDALEDKIDEEVRRFRETRQKNTNEEDDEVREAMTRARALRSQSEESASAFSADDLMSIDLAEQMANDSDDSISAATNKGRGRGRGRRGGRGQNSASRGGSQRGRADTGLETSTRSRNSKTAVSASRNMSIIDAFKSTRQQPSRNVTTKNYSEVIEVDESDVEEDIFPTTSKTDQRWSSTSSSKIMSQSQVSKGVDFESSEDDDDDPFMNTSSLRRNRR
For the molecule B1, the “Difference (log2), untreated vs GFP” value in the experiment on GFP-14-3-3β is listed as -0.2958 log2. Also, the “Difference (log2), PP1 vs untreated” value in experiment [1] is recorded as 0.1784 log2.

B2: XPO5 (protein, UniProt Q9HAV4 2-1204, looked up)
Exportin-5: AMDQVNALCEQLVKAVTVMMDPNSTQRYRLEALKFCEEFKEKCPICVPCGLRLAEKTQVAIVRHFGLQILEHVVKFRWNGMSRLEKVYLKNSVMELIANGTLNILEEENHIKDALSRIVVEMIKREWPQHWPDMLIELDTLSKQGETQTELVMFILLRLAEDVVTFQTLPPQRRRDIQQTLTQNMERIFSFLLNTLQENVNKYQQVKTDTSQESKAQANCRVGVAALNTLAGYIDWVSMSHITAENCKLLEILCLLLNEQELQLGAAECLLIAVSRKGKLEDRKPLMVLFGDVAMHYILSAAQTADGGGLVEKHYVFLKRLCQVLCALGNQLCALLGADSDVETPSNFGKYLESFLAFTTHPSQFLRSSTQMTWGALFRHEILSRDPLLLAIIPKYLRASMTNLVKMGFPSKTDSPSCEYSRFDFDSDEDFNAFFNSSRAQQGEVMRLACRLDPKTSFQMAGEWLKYQLSTFLDAGSVNSCSAVGTGEGSLCSVFSPSFVQWEAMTLFLESVITQMFRTLNREEIPVNDGIELLQMVLNFDTKDPLILSCVLTNVSALFPFVTYRPEFLPQVFSKLFSSVTFETVEESKAPRTRAVRNVRRHACSSIIKMCRDYPQLVLPNFDMLYNHVKQLLSNELLLTQMEKCALMEALVLISNQFKNYERQKVFLEELMAPVASIWLSQDMHRVLSDVDAFIAYVGTDQKSCDPGLEDPCGLNRARMSFCVYSILGVVKRTCWPTDLEEAKAGGFVVGYTSSGNPIFRNPCTEQILKLLDNLLALIRTHNTLYAPEMLAKMAEPFTKALDMLDAEKSAILGLPQPLLELNDSPVFKTVLERMQRFFSTLYENCFHILGKAGPSMQQDFYTVEDLATQLLSSAFVNLNNIPDYRLRPMLRVFVKPLVLFCPPEHYEALVSPILGPLFTYLHMRLSQKWQVINQRSLLCGEDEAADENPESQEMLEEQLVRMLTREVMDLITVCCVSKKGADHSSAPPADGDDEEMMATEVTPSAMAELTDLGKCLMKHEDVCTALLITAFNSLAWKDTLSCQRTTSQLCWPLLKQVLSGTLLADAVTWLFTSVLKGLQMHGQHDGCMASLVHLAFQIYEALRPRYLEIRAVMEQIPEIQKDSLDQFDCKLLNPSLQKVADKRRKDQFKRLIAGCIGKPLGEQFRKEVHIKNLPSLFKKTKPMLETEVLDNDGGGLATIFEP
For B2, the “Difference (log2), untreated vs GFP” value in the experiment on GFP-14-3-3β came to 1.1372 log2. The “Difference (log2), PP1 vs untreated” value in experiment [1] amounted to 0.177 log2.

B3: KTN1 (protein, UniProt Q86UP2 1-1357, looked up)
Kinectin: MEFYESAYFIVLIPSIVITVIFLFFWLFMKETLYDEVLAKQKREQKLIPTKTDKKKAEKKKNKKKEIQNGNLHESDSESVPRDFKLSDALAVEDDQVAPVPLNVVETSSSVRERKKKEKKQKPVLEEQVIKESDASKIPGKKVEPVPVTKQPTPPSEAAASKKKPGQKKSKNGSDDQDKKVETLMVPSKRQEALPLHQETKQESGSGKKKASSKKQKTENVFVDEPLIHATTYIPLMDNADSSPVVDKREVIDLLKPDQVEGIQKSGTKKLKTETDKENAEVKFKDFLLSLKTMMFSEDEALCVVDLLKEKSGVIQDALKKSSKGELTTLIHQLQEKDKLLAAVKEDAAATKDRCKQLTQEMMTEKERSNVVITRMKDRIGTLEKEHNVFQNKIHVSYQETQQMQMKFQQVREQMEAEIAHLKQENGILRDAVSNTTNQLESKQSAELNKLRQDYARLVNELTEKTGKLQQEEVQKKNAEQAATQLKVQLQEAERRWEEVQSYIRKRTAEHEAAQQDLQSKFVAKENEVQSLHSKLTDTLVSKQQLEQRLMQLMESEQKRVNKEESLQMQVQDILEQNEALKAQIQQFHSQIAAQTSASVLAEELHKVIAEKDKQIKQTEDSLASERDRLTSKEEELKDIQNMNFLLKAEVQKLQALANEQAAAAHELEKMQQSVYVKDDKIRLLEEQLQHEISNKMEEFKILNDQNKALKSEVQKLQTLVSEQPNKDVVEQMEKCIQEKDEKLKTVEELLETGLIQVATKEEELNAIRTENSSLTKEVQDLKAKQNDQVSFASLVEELKKVIHEKDGKIKSVEELLEAELLKVANKEKTVQDLKQEIKALKEEIGNVQLEKAQQLSITSKVQELQNLLKGKEEQMNTMKAVLEEKEKDLANTGKWLQDLQEENESLKAHVQEVAQHNLKEASSASQFEELEIVLKEKENELKRLEAMLKERESDLSSKTQLLQDVQDENKLFKSQIEQLKQQNYQQASSFPPHEELLKVISEREKEISGLWNELDSLKDAVEHQRKKNNDLREKNWEAMEALASTEKMLQDKVNKTSKERQQQVEAVELEAKEVLKKLFPKVSVPSNLSYGEWLHGFEKKAKECMAGTSGSEEVKVLEHKLKEADEMHTLLQLECEKYKSVLAETEGILQKLQRSVEQEENKWKVKVDESHKTIKQMQSSFTSSEQELERLRSENKDIENLRREREHLEMELEKAEMERSTYVTEVRELKDLLTELQKKLDDSYSEAVRQNEELNLLKAQLNETLTKLRTEQNERQKVAGDLHKAQQSLELIQSKIVKAAGDTTVIENSDVSPETESSEKETMSVSLNQTVTQLQQLLQAVNQQLTKEKEHYQVLE
For the molecule B3, the “Difference (log2), untreated vs GFP” value in the experiment on GFP-14-3-3β (setting [2]) was -1.401. Further, the “Difference (log2), PP1 vs untreated” value in experiment [1] (setting [2]) came out at 2.052.

B4: QARS (protein, UniProt P47897 2-775, looked up)
Glutamine--tRNA ligase: AALDSLSLFTSLGLSEQKARETLKNSALSAQLREAATQAQQTLGSTIDKATGILLYGLASRLRDTRRLSFLVSYIASKKIHTEPQLSAALEYVRSHPLDPIDTVDFERECGVGVIVTPEQIEEAVEAAINRHRPQLLVERYHFNMGLLMGEARAVLKWADGKMIKNEVDMQVLHLLGPKLEADLEKKFKVAKARLEETDRRTAKDVVENGETADQTLSLMEQLRGEALKFHKPGENYKTPGYVVTPHTMNLLKQHLEITGGQVRTRFPPEPNGILHIGHAKAINFNFGYAKANNGICFLRFDDTNPEKEEAKFFTAICDMVAWLGYTPYKVTYASDYFDQLYAWAVELIRRGLAYVCHQRGEELKGHNTLPSPWRDRPMEESLLLFEAMRKGKFSEGEATLRMKLVMEDGKMDPVAYRVKYTPHHRTGDKWCIYPTYDYTHCLCDSIEHITHSLCTKEFQARRSSYFWLCNALDVYCPVQWEYGRLNLHYAVVSKRKILQLVATGAVRDWDDPRLFTLTALRRRGFPPEAINNFCARVGVTVAQTTMEPHLLEACVRDVLNDTAPRAMAVLESLRVIITNFPAAKSLDIQVPNFPADETKGFHQVPFAPIVFIERTDFKEEPEPGFKRLAWGQPVGLRHTGYVIELQHVVKGPSGCVESLEVTCRRADAGEKPKAFIHWVSQPLMCEVRLYERLFQHKNPEDPTEVPGGFLSDLNLASLHVVDAALVDCSVALAKPFDKFQFERLGYFSVDPDSHQGKLVFNRTVTLKEDPGKV
For the molecule B4, the “Difference (log2), untreated vs GFP” value in the experiment with GFP-14-3-3β was 0.6541 log2. Also, the “Difference (log2), PP1 vs untreated” value in experiment [1] was determined as 0.1821 log2.

B5: CCDC18 (protein, UniProt Q5T9S5 1-1454, looked up)
Coiled-coil domain-containing …: MESSSSDYYNKDNEEESLLANVASLRHELKITEWSLQSLGEELSSVSPSENSDYAPNPSRSEKLILDVQPSHPGLLNYSPYENVCKISGSSTDFQKKPRDKMFSSSAPVDQEIKSLREKLNKLRQQNACLVTQNHSLMTKFESIHFELTQSRAKVSMLESAQQQAASVPILEEQIINLEAEVSAQDKVLREAENKLEQSQKMVIEKEQSLQESKEECIKLKVDLLEQTKQGKRAERQRNEALYNAEELSKAFQQYKKKVAEKLEKVQAEEEILERNLTNCEKENKRLQERCGLYKSELEILKEKLRQLKEENNNGKEKLRIMAVKNSEVMAQLTESRQSILKLESELENKDEILRDKFSLMNENRELKVRVAAQNERLDLCQQEIESSRVELRSLEKIISQLPLKRELFGFKSYLSKYQMSSFSNKEDRCIGCCEANKLVISELRIKLAIKEAEIQKLHANLTANQLSQSLITCNDSQESSKLSSLETEPVKLGGHQVESVKDQNQHTMNKQYEKERQRLVTGIEELRTKLIQIEAENSDLKVNMAHRTSQFQLIQEELLEKASNSSKLESEMTKKCSQLLTLEKQLEEKIVAYSSIAAKNAELEQELMEKNEKIRSLETNINTEHEKICLAFEKAKKIHLEQHKEMEKQIERLEAQLEKKDQQFKEQEKTMSMLQQDIICKQHHLESLDRLLTESKGEMKKENMKKDEALKALQNQVSEETIKVRQLDSALEICKEELVLHLNQLEGNKEKFEKQLKKKSEEVYCLQKELKIKNHSLQETSEQNVILQHTLQQQQQMLQQETIRNGELEDTQTKLEKQVSKLEQELQKQRESSAEKLRKMEEKCESAAHEADLKRQKVIELTGTARQVKIEMDQYKEELSKMEKEIMHLKRDGENKAMHLSQLDMILDQTKTELEKKTNAVKELEKLQHSTETELTEALQKREVLETELQNAHGELKSTLRQLQELRDVLQKAQLSLEEKYTTIKDLTAELRECKMEIEDKKQELLEMDQALKERNWELKQRAAQVTHLDMTIREHRGEMEQKIIKLEGTLEKSELELKECNKQIESLNDKLQNAKEQLREKEFIMLQNEQEISQLKKEIERTQQRMKEMESVMKEQEQYIATQYKEAIDLGQELRLTREQVQNSHTELAEARHQQVQAQREIERLSSELEDMKQLSKEKDAHGNHLAEELGASKVREAHLEARMQAEIKKLSAEVESLKEAYHMEMISHQENHAKWKISADSQKSSVQQLNEQLEKAKLELEEAQDTVSNLHQQVQDRNEVIEAANEALLTKESELTRLQAKISGHEKAEDIKFLPAPFTSPTEIMPDVQDPKFAKCFHTSFSKCTKLRRSISASDLTFKIHGDEDLSEELLQDLKKMQLEQPSTLEESHKNLTYTQPDSFKPLTYNLEADSSENNDFNTLSGMLRYINKEVRLLKKSSMQTGAGLNQGENV
On to B5, for which the “Difference (log2), untreated vs GFP” value in the experiment on GFP-14-3-3β came out at 0.2347 log2. Further, the “Difference (log2), PP1 vs untreated” value in experiment [1] worked out at 0.1672 log2.
